According to FireProtDB (doi:10.1126/science.aai7825):

B1: Transcriptional regulatory protein CusR wild type, P0ACZ8 (protein)
chain: MKLLIVEDEKKTGEYLTKGLTEAGFVVDLADNGLNGYHLAMTGDYDLIILDIMLPDVNGWDIVRMLRSANKGMPILLLTALGTIEHRVKGLELGADDYLVKPFAFAELLARVRTLLRRGAAVIIESQFQVADLMVDLVSRKVTRSGTRITLTSKEFTLLEFFLRHQGEVLPRSLIASQVWDMNFDSDTNAIDVAVKRLRGKIDNDFEPKLIQTVRGVGYMLEVPDGQ
B2: UDP-glucose 4-epimerase wild type, P09147 (protein)
chain: MRVLVTGGSGYIGSHTCVQLLQNGHDVIILDNLCNSKRSVLPVIERLGGKHPTFVEGDIRNEALMTEILHDHAIDTVIHFAGLKAVGESVQKPLEYYDNNVNGTLRLISAMRAANVKNFIFSSSATVYGDQPKIPYVESFPTGTPQSPYGKSKLMVEQILTDLQKAQPDWSIALLRYFNPVGAHPSGDMGEDPQGIPNNLMPYIAQVAVGRRDSLAIFGNDYPTEDGTGVRDYIHVMDLADGHVVAMEKLANKPGVHIYNLGAGVGNSVLDVVNAFSKACGKPVNYHFAPRREGDLPAYWADASKADRELNWRVTRTLDEMAQDTWHWQSRHPQGYPD
B3: Ribosomal small subunit pseudouridine synthase A wild type, P0AA43 (protein)
chain: MRLDKFIAQQLGVSRAIAGREIRGNRVTVDGEIVRNAAFKLLPEHDVAYDGNPLAQQHGPRYFMLNKPQGYVCSTDDPDHPTVLYFLDEPVAWKLHAAGRLDIDTTGLVLMTDDGQWSHRITSPRHHCEKTYLVTLESPVADDTAEQFAKGVQLHNEKDLTKPAVLEVITPTQVRLTISEGRYHQVKRMFAAVGNHVVELHRERIGGITLDADLAPGEYRPLTEEEIASVV
B4: Integration host factor subunit alpha wild type, P0A6X7 (protein)
chain: MALTKAEMSEYLFDKLGLSKRDAKELVELFFEEIRRALENGEQVKLSGFGNFDLRDKNQRPGRNPKTGEDIPITARRVVTFRPGQKLKSRVENASPKDE
B5: Probable ATP-dependent transporter SufC wild type, P77499 (protein)
chain: MLSIKDLHVSVEDKAILRGLSLDVHPGEVHAIMGPNGSGKSTLSATLAGREDYEVTGGTVEFKGKDLLALSPEDRAGEGIFMAFQYPVEIPGVSNQFFLQTALNAVRSYRGQETLDRFDFQDLMEEKIALLKMPEDLLTRSVNVGFSGGEKKRNDILQMAVLEPELCILDESDSGLDIDALKVVADGVNSLRDGKRSFIIVTHYQRILDYIKPDYVHVLYQGRIVKSGDFTLVKQLEEQGYGWLTEQQ
B6: Phenylalanine--tRNA ligase alpha subunit wild type, P08312 (protein)
chain: MSHLAELVASAKAAISQASDVAALDNVRVEYLGKKGHLTLQMTTLRELPPEERPAAGAVINEAKEQVQQALNARKAELESAALNARLAAETIDVSLPGRRIENGGLHPVTRTIDRIESFFGELGFTVATGPEIEDDYHNFDALNIPGHHPARADHDTFWFDTTRLLRTQTSGVQIRTMKAQQPPIRIIAPGRVYRNDYDQTHTPMFHQMEGLIVDTNISFTNLKGTLHDFLRNFFEEDLQIRFRPSYFPFTEPSAEVDVMGKNGKWLEVLGCGMVHPNVLRNVGIDPEVYSGFAFGMGMERLTMLRYGVTDLRSFFENDLRFLKQFK
B7: UTP--glucose-1-phosphate uridylyltransferase wild type, P0AEP3 (protein)
chain: MAAINTKVKKAVIPVAGLGTRMLPATKAIPKEMLPLVDKPLIQYVVNECIAAGITEIVLVTHSSKNSIENHFDTSFELEAMLEKRVKRQLLDEVQSICPPHVTIMQVRQGLAKGLGHAVLCAHPVVGDEPVAVILPDVILDEYESDLSQDNLAEMIRRFDETGHSQIMVEPVADVTAYGVVDCKGVELAPGESVPMVGVVEKPKADVAPSNLAIVGRYVLSADIWPLLAKTPPGAGDEIQLTDAIDMLIEKETVEAYHMKGKSHDCGNKLGYMQAFVEYGIRHNTLGTEFKAWLEEEMGIKK
B8: Nicotinate phosphoribosyltransferase wild type, P18133 (protein)
chain: MTQFASPVLHSLLDTDAYKLHMQQAVFHHYYDVHVAAEFRCRGDDLLGIYADAIREQVQAMQHLRLQDDEYQWLSALPFFKADYLNWLREFRFNPEQVTVSNDNGKLDIRLSGPWREVILWEVPLLAVISEMVHRYRSPQADVAQALDTLESKLVDFSALTAGLDMSRFHLMDFGTRRRFSREVQETIVKRLQQESWFVGTSNYDLARRLSLTPMGTQAHEWFQAHQQISPDLANSQRAALAAWLEEYPDQLGIALTDCITMDAFLRDFGVEFASRYQGLRHDSGDPVEWGEKAIAHYEKLGIDPQSKTLVFSDNLDLRKAVELYRHFSSRVQLSFGIGTRLTCDIPQVKPLNIVIKLVECNGKPVAKLSDSPGKTICHDKAFVRALRKAFDLPHIKKAS
B9: NADPH-dependent 7-cyano-7-deazaguanine reductase wild type, Q46920 (protein)
chain: MSSYANHQALAGLTLGKSTDYRDTYDASLLQGVPRSLNRDPLGLKADNLPFHGTDIWTLYELSWLNAKGLPQVAVGHVELDYTSVNLIESKSFKLYLNSFNQTRFNNWDEVRQTLERDLSTCAQGKISVALYRLDELEGQPIGHFNGTCIDDQDITIDNYEFTTDYLENATCGEKVVEETLVSHLLKSNCLITHQPDWGSLQIQYRGRQIDREKLLRYLVSFRHHNEFHEQCVERIFNDLLRFCQPEKLSVYARYTRRGGLDINPWRSNSDFVPSTTRLVRQ

Conditions: Escherichia coli (strain K12); pH 7.5; Thermal; Intensity; HEPES 20mM; transition: 2; whole UniProt chain shown

Protein | Tm
B1 | 43.7 °C
B2 | 45 °C
B3 | 45 °C
B4 | 44.6 °C
B5 | 44.9 °C
B6 | 43.3 °C
B7 | 45.6 °C
B8 | 45.7 °C
B9 | 43.9 °C
